Here are results for two molecules from patent US20240210419A1 (UNIVERSITY OF VIRGINIA PATENT FOUNDATION, published 2024).

For experiment [1], the target named is FN-9*-10 recombinant fibronectin fragment (normal form mimic) (UniProt P02751). Kind of experiment: ELISA, fibronectin fragment tethered on maleimide-activated plate, colorimetric detection (absorbance).
Experiment [2] has the same target. As to the kind of experiment: ELISA, fibronectin fragment tethered to maleimide activated plate, colorimetric detection.
For experiment [3], the target named is T1, FN-4G-10 recombinant fibronectin fragment (diseased form mimic) (UniProt P02751 1448-1537; P02751 1538-1631, limits assumed).
T1 construct: domain: 9th type III repeat;domain: 10th type III repeat; also called FnIII9-4G-10; FnIII-4G-10
T1 sequence (P02751 other isoform, or with tags, fused parts or gaps limits assumed): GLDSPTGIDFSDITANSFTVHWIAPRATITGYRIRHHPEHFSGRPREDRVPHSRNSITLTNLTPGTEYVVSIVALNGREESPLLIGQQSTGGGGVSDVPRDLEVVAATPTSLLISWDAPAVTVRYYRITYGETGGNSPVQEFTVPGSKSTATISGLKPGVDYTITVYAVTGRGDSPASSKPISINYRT
The description is as above. The source says: (§1) In vitro ELISA binding assays were employed to determine the efficacy of binding of H5 antibodies and derivatives thereof to the diseased form (dise) and the healthy form (norm) of fibronectin. Maleimide activated ELISA plates were used to tether the recombinant fibronectin fragments, which were named as FN-4G-10 and FN-9*-10, and they mimicked diseased and normal form of FN, respectively. Both formats of H5 were used in different molar concentrations starting with 10^-5M and ending with 10-11M. Bound antibodies were detected by colorimetric method.
(§2) The data represents the combination of two independent experiments, one comparing E. coli (eH5) versus N. benthamiana (nicoH5) produced H5-scFv and the second comparing H5-scFv (scFv) to H5-IgG1 (H5-IgG). […] Further, it discriminated the two fragments showing higher affinity for FN-4G-10 (diseased form) compared to FN-9*-10 (Healthy form).

Experiment [4] has as its target T1, FN-4G-10 recombinant fibronectin …. As to the kind of experiment: ELISA, fibronectin fragment tethered on maleimide-activated plate, colorimetric detection (absorbance).
Text: as §1, §2

Experiment [5] deals with FN-4G-10 recombinant fibronectin fragment (diseased form mimic) (UniProt P02751). The experiment is described as above.
Chain of FN-4G-10 recombinant fibronectin fragment (diseased form mimic) (UniProt P02751) (P02751 other isoform, or with tags, fused parts or gaps limits assumed): as above

Bounds are passed on as bounds.

Chain of FN-9*-10 recombinant fibronectin fragment (normal form mimic) (P02751 1448-1631): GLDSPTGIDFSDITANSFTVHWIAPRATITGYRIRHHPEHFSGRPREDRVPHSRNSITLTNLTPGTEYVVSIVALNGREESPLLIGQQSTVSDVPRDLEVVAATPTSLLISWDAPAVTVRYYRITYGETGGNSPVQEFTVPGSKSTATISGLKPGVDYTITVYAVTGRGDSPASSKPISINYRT

B1: modified H5-IgG1 antibody (antibody, V domains shown)
VH: EVQLLESGGGLVQPGGSLRLSCAASGFTFSSYAMSWVRQAPGKGLEWVSDIYDGGGTNYADSVKGRFTTSRDNSKNTLYLQMNSLRAEDTAVYYCAKTADNFDYWGQGTLVTVSS
VL: DIQMTQSPSSLSASVGDRVTITCRASQSISSYLNWYQQKPGKAPKLLIYAASTLQSGVPSRFSGSGSGTDFTLTISSLQPEDFATYYCQQANSAPTTFGQGTKVEIKR
notes: Full length IgG1 format; Made in a plug-and-(dis)play (PnP) hybridoma cell line; also called modified IgG1 format of H5
Consider B1, for which the EC50 (read off the curve) was 10 nM in experiment [1] and approximately 4 nM in experiment [4]. Besides, the fold higher binding than the H5-scFv format at equimolar concentration was more than 50 fold in experiment [2] and not below 50 fold in experiment [3].

B2: unmodified H5 antibody (H5-scFv) produced in E. coli (scFv, part only; not given: scFv linker, domain order, tags, V domains shown, not shown: another chain or arm of the molecule; small tags and cut ends)
VH: EVQLLESGGGLVQPGGSLRLSCAASGFTFSSYAMSWVRQAPGKGLEWVSDIYDGGGTNYADSVKGRFTTSRDNSKNTLYLQMNSLRAEDTAVYYCAKTADNFDYWGQGTLVTVSS
VL: DIQMTQSPSSLSASVGDRVTITCRASQSISSYLNWYQQKPGKAPKLLIYAASTLQSGVPSRFSGSGSGTDFTLTISSLQPEDFATYYCQQANSAPTTFGQGTKVEIK
In the case of B2, the half-maximal effective concentration (EC50 (read off the curve)) in experiment [5] and in experiment [1] was 100 nM throughout.
